Results from patent US20260242419A1, “A CYCLIC PEPTIDE FOR TRAPPING INTERLEUKIN-1 BETA” (Merck Sharp & Dohme LLC, priority 2023, published 2026).
Starred links: 1 amine or outer side, 2 acyl side, 3 side chain; linkers in the order of their positions; H or OH if unused. Non-standard residues stand in square brackets, D forms with d. No end group written: not given here. TyrEtNAc = (2S)-3-[4-(2-acetamidoethoxy)phenyl]-2-amino-propanoic acid, CC(=O)NCCOc1ccc(C[C@H](N[*:1])C(=O)[*:2])cc1; dProc3CH24Pal = (2R,3S)-3-(4-pyridylmethyl)pyrrolidine-2-carboxylic acid, O=C([C@H]1[C@@H](Cc2ccncc2)CCN1[*:1])[*:2]; daMeSMe = (2R)-2-amino-3-methoxy-2-methyl-propanoic acid, COC[C@@](C)(N[*:1])C(=O)[*:2]; ThrOMe = (2S,3R)-2-amino-3-methoxy-butanoic acid, CO[C@H](C)[C@H](N[*:1])C(=O)[*:2]; dPro(4R-(4-pyridylmethyl)) = O=C(O)[C@H]1C[C@@H](Cc2ccncc2)CN1; Trp(βS-Me,4-F) = C[C@@H](c1c[nH]c2cccc(F)c12)[C@H](N)C(=O)O; Bip(4'-CONH2) = NC(=O)c1ccc(-c2ccc(C[C@H](N)C(=O)O)cc2)cc1; Bip(4'-COOH) = N[C@@H](Cc1ccc(-c2ccc(C(=O)O)cc2)cc1)C(=O)O; Ala(1-bicyclo(1.1.1)pentyl) = N[C@@H](CC12CC(C1)C2)C(=O)O; dPro(3S-(4-F-Bn)) = O=C(O)[C@@H]1NCC[C@@H]1Cc1ccc(F)cc1; Trp(4-Cl) = N[C@@H](Cc1c[nH]c2cccc(Cl)c12)C(=O)O; Ala(pyrimidin-5-yl) = N[C@@H](Cc1cncnc1)C(=O)O; Phe(4-CONH2) = NC(=O)c1ccc(C[C@H](N)C(=O)O)cc1; Phe(4-COOH) = N[C@@H](Cc1ccc(C(=O)O)cc1)C(=O)O; Pro(cis-4-F) = O=C(O)[C@@H]1C[C@H](F)CN1; Ala(4-THP) = N[C@@H](CC1CCOCC1)C(=O)O; Dap(CONH2) = NC(=O)NC[C@H](N)C(=O)O; hTyr = N[C@@H](CCc1ccc(O)cc1)C(=O)O; cisHyp = O=C(O)[C@@H]1C[C@H](O)CN1; d(αMeD) = C[C@@](N)(CC(=O)O)C(=O)O; d(αMeN) = C[C@@](N)(CC(N)=O)C(=O)O; h4Pal = N[C@@H](CCc1ccncc1)C(=O)O; hPhe = N[C@@H](CCc1ccccc1)C(=O)O; 4Pal = N[C@@H](Cc1ccncc1)C(=O)O; αMeD = C[C@](N)(CC(=O)O)C(=O)O; d(αMeS) = C[C@@](N)(CO)C(=O)O; NMeDab = CN[C@@H](CCN)C(=O)O; Dab = NCC[C@H](N)C(=O)O; Aib = CC(C)(N)C(=O)O; Sar = CNCC(=O)O

B1: SEQ ID NO: 217 (peptide)
peptide: cyclo([Bip(4'-CONH2)][Ala(1-bicyclo(1.1.1)pentyl)][Phe(4-COOH)]G[Pro(cis-4-F)][Trp(βS-Me,4-F)][Aib]SW[d(αMeN)][Ala(4-THP)]Q[Dab]G[dPro(3S-(4-F-Bn))])
modifications: ring closure inferred; not fully specified (bridges); printed as Bip4CONH2-AlaPent-Phe4COOH-G-Proc4F-SbMeW4F-Aib-S-W-daMeN-AlaTHP4-Q-Dab-G-dProc3Bn4F, cyclic (macrolactam)
B2: SEQ ID NO: 221 (peptide)
peptide: [Bip(4'-COOH)][4Pal][Phe(4-COOH)]G[Pro(cis-4-F)][Trp(βS-Me,4-F)][Aib]SW[d(αMeD)][hPhe]Q[Dab]G[dProc3CH24Pal]
modifications: lactam (positions not given here); also: macrolactam, ring places not given here
B3: SEQ ID NO: 213 (peptide)
peptide: cyclo([Bip(4'-COOH)][4Pal][Phe(4-COOH)]G[cisHyp][Trp(βS-Me,4-F)][Aib]SW[d(αMeS)][Ala(4-THP)]Q[Dab]G[dPro(4R-(4-pyridylmethyl))])
modifications: ring closure inferred; not fully specified (bridges); printed as Bip4CO2H-4Pal-Phe4COOH-G-Proc4OH-SbMeW4F-Aib-S-W-daMeS-AlaTHP4-Q-Dab-G-dProc4CH24Pal, cyclic (macrolactam)
B4: SEQ ID NO: 215 (peptide)
peptide: cyclo([Bip(4'-CONH2)][4Pal][Phe(4-COOH)]G[Pro(cis-4-F)][Trp(βS-Me,4-F)][Aib]SW[d(αMeS)][Ala(4-THP)]Q[Dab]G[dPro(4R-(4-pyridylmethyl))])
modifications: ring closure inferred; not fully specified (bridges); printed as Bip4CONH2-4Pal-Phe4COOH-G-Proc4F-SbMeW4F-Aib-S-W-daMeS-AlaTHP4-Q-Dab-G-dProc4CH24Pal, cyclic (macrolactam)
B5: SEQ ID NO: 226 (peptide)
peptide: [Bip(4'-COOH)][4Pal][Phe(4-COOH)]G[Pro(cis-4-F)][Trp(βS-Me,4-F)][Aib]S[Trp(4-Cl)][d(αMeD)][Ala(pyrimidin-5-yl)]Q[Dap(CONH2)]G[dProc3CH24Pal]
modifications: lactam (positions not given here); also: macrolactam, ring places not given here
B6: SEQ ID NO: 225 (peptide)
peptide: [Bip(4'-COOH)][4Pal][Phe(4-COOH)]G[Pro(cis-4-F)][Trp(βS-Me,4-F)][Aib]S[Trp(4-Cl)][d(αMeD)][Ala(pyrimidin-5-yl)]Q[Dab]G[dProc3CH24Pal]
modifications: lactam (positions not given here); also: macrolactam, ring places not given here
B7: SEQ ID NO: 210 (peptide)
peptide: cyclo([Bip(4'-COOH)][4Pal][Phe(4-COOH)]G[cisHyp][Trp(βS-Me,4-F)][Aib]SW[αMeD][Ala(4-THP)]Q[Dab][Sar][dPro(4R-(4-pyridylmethyl))])
modifications: ring closure inferred; not fully specified (bridges); printed as Bip4CO2H-4Pal-Phe4COOH-G-Proc4OH-SbMeW4F-Aib-S-W-aMeD-AlaTHP4-Q-Dab-Sar-dProc4CH24Pal, cyclic (macrolactam)
B8: SEQ ID NO: 211 (peptide)
peptide: cyclo([Bip(4'-COOH)][4Pal][Phe(4-COOH)]G[Pro(cis-4-F)][Trp(βS-Me,4-F)][Aib]SW[Aib][Ala(4-THP)]Q[Dab]G[dPro(4R-(4-pyridylmethyl))])
modifications: ring closure inferred; not fully specified (bridges); printed as Bip4CO2H-4Pal-Phe4COOH-G-Proc4F-SbMeW4F-Aib-S-W-Aib-AlaTHP4-Q-Dab-G-dProc4CH24Pal, cyclic (macrolactam)
B9: SEQ ID NO: 227 (peptide)
peptide: [Bip(4'-COOH)][4Pal][Phe(4-COOH)]G[Pro(cis-4-F)][Trp(βS-Me,4-F)][Aib]SW[d(αMeD)][ThrOMe]Q[Dab]G[dProc3CH24Pal]
modifications: lactam (positions not given here); also: macrolactam, ring places not given here
B10: SEQ ID NO: 212 (peptide)
peptide: cyclo([Bip(4'-COOH)][4Pal][Phe(4-COOH)]G[cisHyp][Trp(βS-Me,4-F)][Aib]SW[Aib][Ala(4-THP)]Q[Dab]G[dPro(4R-(4-pyridylmethyl))])
modifications: ring closure inferred; not fully specified (bridges); printed as Bip4CO2H-4Pal-Phe4COOH-G-Proc4OH-SbMeW4F-Aib-S-W-Aib-AlaTHP4-Q-Dab-G-dProc4CH24Pal, cyclic (macrolactam)
B11: SEQ ID NO: 219 (peptide)
peptide: cyclo([Bip(4'-COOH)][4Pal][Phe(4-COOH)]G[Pro(cis-4-F)][Trp(βS-Me,4-F)][Aib]SW[d(αMeD)][hTyr]Q[Dab]G[dProc3CH24Pal])
modifications: ring closure inferred; not fully specified (bridges); printed as Bip4CO2H-4Pal-Phe4COOH-G-Proc4F-SbMeW4F-Aib-S-W-daMeD-hY-Q-Dab-G-dProc3CH24Pal, cyclic (macrolactam)
B12: SEQ ID NO: 208 (peptide)
peptide: cyclo([Bip(4'-COOH)][4Pal][Phe(4-COOH)]G[Pro(cis-4-F)][Trp(βS-Me,4-F)][Aib]SW[αMeD][Ala(4-THP)]Q[Dab][Sar][dPro(4R-(4-pyridylmethyl))])
modifications: ring closure inferred; not fully specified (bridges); printed as Bip4CO2H-4Pal-Phe4COOH-G-Proc4F-SbMeW4F-Aib-S-W-aMeD-AlaTHP4-Q-Dab-Sar-dProc4CH24Pal, cyclic (macrolactam)
B13: SEQ ID NO: 207 (peptide)
peptide: cyclo([Bip(4'-COOH)][4Pal][Phe(4-COOH)]G[cisHyp][Trp(βS-Me,4-F)][Aib]SW[d(αMeS)][Ala(4-THP)]Q[Dab][Sar][dPro(4R-(4-pyridylmethyl))])
modifications: ring closure inferred; not fully specified (bridges); printed as Bip4CO2H-4Pal-Phe4COOH-G-Proc4OH-SbMeW4F-Aib-S-W-daMeS-AlaTHP4-Q-Dab-Sar-dProc4CH24Pal, cyclic (macrolactam)
B14: SEQ ID NO: 209 (peptide)
peptide: cyclo([Bip(4'-COOH)][4Pal][Phe(4-COOH)]G[cisHyp][Trp(βS-Me,4-F)][Aib]SW[αMeD][Ala(pyrimidin-5-yl)]Q[Dab][Sar][dPro(4R-(4-pyridylmethyl))])
modifications: ring closure inferred; not fully specified (bridges); printed as Bip4CO2H-4Pal-Phe4COOH-G-Proc4OH-SbMeW4F-Aib-S-W-aMeD-PyrimAla-Q-Dab-Sar-dProc4CH24Pal, cyclic (macrolactam)
B15: SEQ ID NO: 223 (peptide)
peptide: [Bip(4'-COOH)][4Pal][Phe(4-COOH)]G[Pro(cis-4-F)][Trp(βS-Me,4-F)][Aib]SW[d(αMeD)][h4Pal]Q[Dap(CONH2)]G[dProc3CH24Pal]
modifications: lactam (positions not given here); also: macrolactam, ring places not given here
B16: SEQ ID NO: 222 (peptide)
peptide: [Bip(4'-COOH)][4Pal][Phe(4-COOH)]G[Pro(cis-4-F)][Trp(βS-Me,4-F)][Aib]SW[d(αMeD)][h4Pal]Q[Dab]G[dProc3CH24Pal]
modifications: lactam (positions not given here); also: macrolactam, ring places not given here
B17: SEQ ID NO: 216 (peptide)
peptide: cyclo([Bip(4'-CONH2)][Ala(1-bicyclo(1.1.1)pentyl)][Phe(4-COOH)]G[Pro(cis-4-F)][Trp(βS-Me,4-F)][Aib]SW[d(αMeS)][Ala(4-THP)]Q[Dab]G[dPro(3S-(4-F-Bn))])
modifications: ring closure inferred; not fully specified (bridges); printed as Bip4CONH2-AlaPent-Phe4COOH-G-Proc4F-SbMeW4F-Aib-S-W-daMeS-AlaTHP4-Q-Dab-G-dProc3Bn4F, cyclic (macrolactam)
B18: SEQ ID NO: 220 (peptide)
peptide: [Bip(4'-COOH)][4Pal][Phe(4-COOH)]G[Pro(cis-4-F)][Trp(βS-Me,4-F)][Aib]SW[Aib][hTyr]Q[Dab]G[dProc3CH24Pal]
modifications: lactam (positions not given here); also: macrolactam, ring places not given here
B19: SEQ ID NO: 224 (peptide)
peptide: [Bip(4'-COOH)][4Pal][Phe(4-COOH)]G[Pro(cis-4-F)][Trp(βS-Me,4-F)][Aib]SW[daMeSMe][Ala(pyrimidin-5-yl)]Q[Dab]G[dProc3CH24Pal]
modifications: lactam (positions not given here); also: macrolactam, ring places not given here

These binders were tested against Recombinant human IL-1β (BioLegend 579404) (human, UniProt P01584 117-269) (assay: cell-based or functional assay).

Point of comparison: B9, “MRC5 IC50” value 0.014 nM. Against it:
- B1 — 2-fold higher, 0.028 nM
- B2 — within 1.5-fold, 0.02 nM
- B3 — 1.5-fold higher, 0.021 nM
- B4 — within 1.5-fold, 0.01 nM
- B5 — 1.6-fold higher, 0.022 nM
- cyclo([TyrEtNAc][4Pal][Phe(4-CONH2)]G[Pro(cis-4-F)][Trp(βS-Me,4-F)][Aib]SW[Aib][Ala(pyrimidin-5-yl)]Q[NMeDab]G[dPro(4R-(4-pyridylmethyl))]) (ring closure inferred; not fully specified (bridges)) [SEQ ID NO: 218] — 2.6-fold higher, 0.036 nM
- B6 — within 1.5-fold, 0.019 nM
- B7 — 2.1-fold higher, 0.029 nM
- B8 — within 1.5-fold, 0.019 nM
- B10 — 2.1-fold higher, 0.029 nM
- B11 — within 1.5-fold, 0.018 nM
- B12 — within 1.5-fold, 0.015 nM
- B13 — 3.1-fold higher, 0.044 nM
- B14 — 2.4-fold higher, 0.034 nM
- B15 — 1.9-fold higher, 0.027 nM
- B16 — within 1.5-fold, 0.02 nM
- B17 — 1.8-fold lower, 0.008 nM
- B18 — 2.8-fold higher, 0.039 nM
- B19 — 2.1-fold higher, 0.03 nM
